IC50 and Kd data for 8 sequences are collected here from the Immune Epitope Database (IEDB).

One test deals with HLA-A*24:02. In words: IEDB peptide-MHC binding, purified MHC/competitive/fluorescence; ≥ and ≤ were set here for values at or beyond the usual limits of such assays. Conditions: source organism: Zaire ebolavirus.
Test [1] addresses HLA-A*01:01. The test is described as above.
The target of test [2] is HLA-A*02:01. The description is as above.
Test [3] deals with HLA-A*03:01. The test is described as above. To be noted: source organism: Zaire ebolavirus.
Test [4] has as its target HLA-B*15:01. Described as above. To be noted: source organism: Zaire ebolavirus.
Test [5] has as its target HLA-A*11:01. Described as above. To be noted: source organism: Zaire ebolavirus.
In test [6] the target is HLA-A*11:01. In words: IEDB peptide-MHC binding, purified MHC/competitive/fluorescence; filed as Kd, often an IC50 or EC50 that approximates it; ≥ and ≤ were set here for values at or beyond the usual limits of such assays. To be noted: source organism: Campylobacter jejuni subsp. jejuni NCTC 11168 = ATCC 700819.
A further test concerns the target HLA-B*07:02. Kind of test: IEDB peptide-MHC binding, purified MHC/direct/fluorescence; filed as Kd, often an IC50 or EC50 that approximates it; ≥ and ≤ were set here for values at or beyond the usual limits of such assays.
The target of a further test is HLA-B*57:01. Described as above.
A further test concerns the target HLA-B*58:01. Described as above.
A further test concerns the target HLA-B*08:01. Described as above.
Another test addresses HLA-A*69:01. Described as above. Conditions: source organism: Campylobacter jejuni RM1221.
The next test addresses HLA-A*31:01. Described as above.
For another test, the target named is HLA-B*73:01. Described as above. Conditions: source organism: Campylobacter jejuni RM1221.
Test [7] has as its target HLA-A*01:01. The test is described as above.
The target of the next test is HLA-B*48:01. The test is described as above.
Test [8] deals with HLA-A*02:01. The test is described as above.
Test [9] has as its target HLA-A*03:01. The description is as above.
In test [10] the target is HLA-B*15:01. The description is as above.
Test [11] addresses HLA-A*68:02. Described as above.
In the next test the target is HLA-B*27:05. The description is as above.
The target in the next test is HLA-B*18:01. The test is described as above.
The target in the next test is HLA-B*15:17. The description is as above.
For a further test, the target named is HLA-C*14:02. In words: IEDB peptide-MHC binding, purified MHC/competitive/fluorescence; filed as Kd, often an IC50 or EC50 that approximates it; ≥ and ≤ were set here for values at or beyond the usual limits of such assays. To be noted: source organism: Francisella tularensis subsp. tularensis FSC198.
Another test has as its target HLA-B*45:06. The description is as above. To be noted: source organism: Francisella tularensis subsp. tularensis FSC198.
The target of another test is HLA-C*04:01. Described as above. Conditions: source organism: Francisella tularensis subsp. tularensis FSC198.
For the next test, the target named is HLA-B*15:42. Described as above. Conditions: source organism: Francisella tularensis subsp. tularensis FSC198.
In another test the target is HLA-B*83:01. The test is described as above. To be noted: source organism: Francisella tularensis subsp. tularensis FSC198.
A further test deals with HLA-C*08:02. In words: IEDB peptide-MHC binding, purified MHC/direct/fluorescence; filed as Kd, often an IC50 or EC50 that approximates it; ≥ and ≤ were set here for values at or beyond the usual limits of such assays. Conditions: source organism: Francisella tularensis subsp. tularensis FSC198.
The next test has as its target HLA-A*80:01. Described as above. Conditions: source organism: Francisella tularensis subsp. holarctica LVS.
For another test, the target named is HLA-A*02:06. In words: IEDB peptide-MHC binding, purified MHC/competitive/fluorescence; filed as Kd, often an IC50 or EC50 that approximates it; ≥ and ≤ were set here for values at or beyond the usual limits of such assays. To be noted: source organism: Influenza A virus H3N2.
Another test deals with HLA-A*02:03. The test is described as above. To be noted: source organism: Influenza A virus H3N2.
For test [12], the target named is HLA-A*02:01. The test is described as above. Conditions: source organism: Influenza A virus H3N2.
The target in test [13] is HLA-A*68:02. The description is as above. To be noted: source organism: Influenza A virus H3N2.
The next test concerns the target HLA-B*15:09. In words: IEDB peptide-MHC binding, purified MHC/direct/fluorescence; filed as Kd, often an IC50 or EC50 that approximates it; ≥ and ≤ were set here for values at or beyond the usual limits of such assays. Conditions: source organism: Influenza A virus(A/swine/Shandong/fNY/2003(H9N2)).
The target of test [14] is HLA-A*11:01. The test is described as above.
A further test deals with HLA-B*39:01. Described as above. To be noted: source organism: Influenza A virus(A/swine/Shandong/fNY/2003(H9N2)).
Test [15] concerns the target HLA-A*02:01. In words: IEDB peptide-MHC binding, cellular MHC/competitive/fluorescence; ≥ and ≤ were set here for values at or beyond the usual limits of such assays.
Another test deals with HLA-A*26:03. Kind of test: IEDB peptide-MHC binding, purified MHC/competitive/fluorescence; filed as Kd, often an IC50 or EC50 that approximates it; ≥ and ≤ were set here for values at or beyond the usual limits of such assays. To be noted: source organism: Orthomarburgvirus marburgense.
The target of the next test is HLA-B*08:02. Kind of test: IEDB peptide-MHC binding, purified MHC/direct/fluorescence; filed as Kd, often an IC50 or EC50 that approximates it; ≥ and ≤ were set here for values at or beyond the usual limits of such assays. To be noted: source organism: Ravn virus - Ravn, Kenya, 1987.
A further test concerns the target HLA-B*46:01. The test is described as above. Conditions: source organism: Marburg virus - Musoke, Kenya, 1980.
The next test has as its target HLA-B*40:01. Described as above. To be noted: source organism: Marburg virus - Musoke, Kenya, 1980.
[16] abbreviates: source organism: Zaire ebolavirus.
The mark [17] stands for this setting: source organism: Campylobacter jejuni RM1221.
Setting [18] is: source organism: Influenza A virus (A/equine/New York/1/1999(H3N8)).
The mark [19] stands for this setting: source organism: Marburg virus - Musoke, Kenya, 1980.

pIC50, pKd: −log10 of the molar value.

In the case of SLPKTSGHY, the pIC50 (in general, the negative decadic logarithm of the IC50, by convention in mol/L) is 4.32 with HLA-A*24:02; 4.42 with HLA-A*01:01 [1] (setting [16]); at most 3.43 with HLA-A*02:01 [2] (setting [16]); at most 4.04 in the test with HLA-A*03:01 [3]; 5.40 with HLA-B*15:01 [4]; at most 3.98 with HLA-A*11:01 [5].
On to AKYEICLEK, for which the pKd in the test with HLA-A*11:01 [6], with HLA-B*07:02 (setting [17]), with HLA-B*57:01 (setting [17]), with HLA-B*58:01 (setting [17]), in the test with HLA-B*08:01 (source organism: Campylobacter jejuni subsp. jejuni 81-176) and with HLA-A*69:01 was at most 4.70 in each case. The pKd with HLA-A*31:01 (setting [17]), with HLA-B*73:01, in the test with HLA-A*01:01 [7] (setting [17]), with HLA-B*48:01 (setting [17]), with HLA-A*02:01 [8] (setting [17]) and with HLA-A*03:01 [9] (setting [17]) was at most 4.70 throughout. Further, the negative-log Kd (pKd) with HLA-B*15:01 [10] (setting [17]), with HLA-A*68:02 [11] (setting [17]), in the test with HLA-B*27:05 (setting [17]), in the test with HLA-B*18:01 (setting [17]) and with HLA-B*15:17 (setting [17]) was at most 4.70 each time.
Take YTDKIAMSY: the pKd (usually −log10 of the Kd, conventionally taken in molar units) in the test with HLA-C*14:02 was 7.16; with HLA-B*45:06, at most 5.30; with HLA-C*04:01, at most 5.30; in the test with HLA-B*15:42, at most 5.30; in the test with HLA-B*83:01, at most 5.30; in the test with HLA-A*01:01 [7] (source organism: Francisella tularensis subsp. holarctica LVS) it was at least 9.00. The pKd with HLA-C*08:02 was 6.19; in the test with HLA-A*80:01, 9.30.
Take ELVRKTRFL: the pKd in the test with HLA-A*02:06 was 5.54; with HLA-A*02:03, at most 4.70; with HLA-A*02:01 [12], at most 4.70; with HLA-A*68:02 [13] it was 5.85; in the test with HLA-B*07:02 (setting [18]), at most 4.70; with HLA-B*57:01 (setting [18]), at most 4.70. Besides, the pKd with HLA-B*58:01 (setting [18]) is at most 4.70; with HLA-B*08:01 (setting [18]) it was 5.79; with HLA-A*31:01 (setting [18]) it was at most 4.70; in the test with HLA-A*01:01 [7] (setting [18]), at most 4.70; with HLA-B*15:09, at most 4.70; with HLA-B*15:01 [10] (setting [18]), at most 4.70. Moreover, the negative-log Kd (pKd) with HLA-A*11:01 [14] (setting [18]), with HLA-B*18:01 (setting [18]) and in the test with HLA-B*39:01 was at most 4.70 each time.
In the test with HLA-A*02:01 [15] (source organism: Homo sapiens), SLLDKIIGA had a pIC50 of 4.82.
Take YMDDLYVGSD: the pIC50 with HLA-A*02:01 [15] (source organism: Human immunodeficiency virus 1) is 5.10.
In the case of IISTNTLGK, the pKd with HLA-A*26:03, with HLA-B*07:02 (setting [19]), in the test with HLA-B*57:01 (setting [19]), with HLA-B*08:02, with HLA-B*58:01 (setting [19]) and with HLA-A*31:01 (setting [19]) was at most 4.70 each time. The pKd with HLA-A*01:01 [7] (setting [19]) is at most 4.70; in the test with HLA-B*48:01 (setting [19]) it was at most 4.70; with HLA-B*46:01, at most 4.70; with HLA-A*02:01 [8] (setting [19]), at most 4.70; with HLA-A*03:01 [9] (setting [19]) it was 6.60; in the test with HLA-B*40:01, at most 4.70. Besides, the pKd is at most 4.70 in the test with HLA-B*15:01 [10] (setting [19]); at most 4.70 in the test with HLA-A*68:02 [11] (setting [19]); at most 4.70 with HLA-B*27:05 (setting [19]); 6.89 with HLA-A*11:01 [14] (setting [19]); at most 4.70 in the test with HLA-B*18:01 (setting [19]); at most 4.70 with HLA-B*15:17 (setting [19]).
Take KIDSMFLMT: the pIC50 with HLA-A*01:01 [1] (source organism: Variola virus) was at most 3.98; with HLA-A*02:01 [2] (source organism: Variola virus) it was 6.25.
